Biological target: Cdc42 (SEQ ID NO: 12) expressed as an N-terminal 3x FLAG-tagged protein

B1: sh04009DH/PH protein (SEQ ID NO: 6) with FLAG-tag (3x) at the C-terminal (protein)
chain: MEELSENSSSTPSEEQDEEASQSRHRHCENKQQMRTNVIREIMDTERVYIKHLRDICEGYIRQCRKHTGMFTVAQLATIFGNIEDIYKFQRKFLKDLEKQYNKEEPHLSEIGSCFLQNQEGFAIYSEYCNNHPGACLELANLMKQGKYRHFFEACRLLQQMIDIAIDGFLLTPVQKICKYPLQLAELLKYTTQEHGDYSNIKAAYEAMKNVACLINERKRKLESIDKIARWQVSIVGWEGLDILDRSSELIHSGELTKITKQGKSQQRTFFLFDHQLVSCKKDLLRRDMLYYKGRLDMDEMELVDLGDGRDKDCNLSVKNAFKLVSRTTDEVYLFCAKKQEDKARWLQACADERRRVQEDKEMGMEISENQKKLAMLNAQKAGHGKSKGYNRCPVAPPHQGLHPIHQRHITMPTSVPQQQVFGLAEPKRKSSLFWHTFNRLTPFRK
effector pull-down assay: amount of active (GTP-bound) Cdc42 bound to the PAK-1 effector bead, Western blot with anti-FLAG antibody: In the cell lysate (lane 4 in FIG. 2) prepared from the cells in which the sh04009DH/PH protein was co-expressed with Cdc42, the band was detected more strongly that in the cell lysate (lane 2 in FIG. 2) prepared from the cells in which only Cdc42 was expressed

From patent publication US20080274954
